Results on 23 sequences are retold here after the DeepSol protein solubility set.

The series in a line: soluble on expression in E. coli; label from the status in PepcDB or PDB records.
For “MSLKITEIETLRPEEFPNLLWVLVHTDEGITGLGETFYGACSAEAYIHEWAANRLIGEDPLQIDRHAKRLSGYLGFRSAGAEMRGNSALDIALWDIFGKATGQPIYQLLGGKCRDTIRTYNTCAGPHYVRTAKQQSVANWGLANSVSARYDDLNAFLHRADELALDLLDSGITAMKIWPFDPYAEASDGYYISKSDLKRALEPFEKIRRAVGDKMDVMVEFHSLWNLPPALQIAEALREYETFWHEDPIRMDSLSSLKRYAERSLAPVCASETLATRWGFRDLLETNAAGIVMLDISWCGGLSEARKIASMAEAWHLPVAPHDCTGPVVLTASTHLSLNAPNALVQESVRAFYDGWYRDLVTALPTVKDGHITVPDGPGLGLELMPDIRERLTIAVRNTSDCEGHHHHHH”, the “soluble on expression in E. coli” value is “soluble”.

For the sequence “MARPKTQSERMIILERIIGLVKEQGRITTNDVVAIFGVHRTTAEKYLRIALERGGFIRHGRCGIFRDQRAVIDYDLRRYSSSQVTGFSALPVLEKSPVMQVYGASKMSINKGGAQ”, the “soluble on expression in E. coli” value was “not soluble”.

On to “MGSDKIHHHHHHMFDMFEKAVVFGLYSITPVHAGSGAELSVIDLPIQRERHTGFPVIWGQSLKGVLRSRFRQLELDEKIEVESQKWKWKEKTKEVLKEKADEFIKKVEERKRDPLLTEIVFGPATDGASEHAGAVSVGDAKILLFPVRSAKGVFAFVTSPIVIQRLKEDFELVSEIENDIELKQILSRFKVELSNNETIAGNALILNGENKVILEDIVLKVKSDSNVIENLVEVLKTLFGDNFFGKPIESIKERIAIVSDDVFKSFTRFSTEIVARVRIDAEKGTVARGGLWYEEFLPSDTLMYSLIAVGSPKKENLPKEVDNTQKIVNVLKVTFNNAFLQIGGDETVGKGFVKVRAGVLTGGHKGN”, for which the “soluble on expression in E. coli” value was “not soluble”.

As to “MSLDKWEMERTDITMKHKLGGGQFGEVYEGVWKKYSLTVAVKTLKEDTMEVEEFLKEAAVMKEIKHPNLVQLLGVCTREPPFYIITEFMTYGNLLDYLRECNRQEVSAVVLLYMATQISSAMEYLEKKNFIHRDLAARNCLVGENHLVKVADFGLSRLMTGDTYTAHAGAKFPIKWTAPESLAYNKFSIKSDVWAFGVLLWEIATYGMSPYPGIDPSQVYELLEKDYRMERPEGCPEKVYELMRACWQWNPSDRPSFAEIHQAFETMFQESSISDEVEKELGKRGEGHHHHHH”, the “soluble on expression in E. coli” value was “soluble”.

“MGSDKIHHHHHHMIFKRKVYDKLIEWKTLAAGTSAVLLEGARRIGKSTIVEEFAKKEYDDYMILDFARENQDVKNNFVENMNDLDTFFRNLFLLKGKRLKGKNCVIIFDEVQLFPQARQAIKYLVADGRYEYIETGSLISIRKNVKDILIPSEEYRIKMYPMDFEEYLWAINDEVTIPTIRESFEKRKPLGDAIHRRIMKSFRTYMVVGGMPQAVDAYVSGKSYEQIDFVKRNILSLYEEDLAKYDTENREKASVIYRTIPEQLENKNSHFKLSMVDKNARYQNYMDAVSFISEAMIGNECINVTKPEVALELFADRSNFKLYMGDTGLLVTQIMKNRDSTDEDLYKALIIDNLGINQGMIVENIVAQMLRAAGHELYFHEYLYVPEGTTREKKYEIDFMIVKKKKICPIEVKSSNYMSHKSFDYLIQKYQLKCENRFIIYTKDLKYQDGIMYIPIYMTMLL”: the “soluble on expression in E. coli” value is “not soluble”.

“MYQVITMYGDNEPWWFFDDWQEDIVQEKTFDNLTDAETYYVEVWQKLSQNYTYVNTKPNYLTAFWNDGEERWCEECDEDLQQYFGLALLENHHAVTFENKAEFTTISNHFGKTKFCKRKVILEHHHHHH”: the “soluble on expression in E. coli” value is “soluble”.

As for “MYKLDLPTLMDAFHKVFHVSMLRKCITHQENVISEPPPDLLENMMIVGMLIPNLLGVSSEMVGR”, the “soluble on expression in E. coli” value is “not soluble”.

Turning to “MSGNQNGENVQQKKEKMCSIGETIYTWTQNKHATTYVGTYTKAFFSGEVCREIREHDEFLGMSFSSFF”, the “soluble on expression in E. coli” value is “not soluble”.

“MEASSSAQAKIADMREKLGREVRVFETSSISQRPSQVSSADDESDDFYEFTPADFYRLLATKKEDKSLKTRKIREAEEAARRSKLTKAVIRVRFPDNHTLEATFHPSEKIQGLIDLVKRVVAHPDVPFYLYTTPPKKQIKDFSQDFYSAGFVPGAIVYFSNDQPKDDGGSSTPYLNEEILSLKDLEAMTKAVEPVESSSEPATVDSSAVPVEHERKSTEKKTTKPKWFKM”: the “soluble on expression in E. coli” value is “soluble”.

With “MGSDKIHHHHHHMKVVPAQRCVYSFSANMAPVEEVYPGEQVVFETLDALGGSYDKIDFSKVNPATGPVFVNGVKPGDTLKVRIKRIELPRRGMIVTGKGFGVLGDEVEGFHTKELEIEKWAVLFDGVRIPIHPMVGVIGVAPQEGEYPTGTAHRHGGNMDTKEITENVTVHLPVFQEGALLALGDVHATMGDGEVCVSACEVPAKVVVEIDVSKEEIKWPVVETNDAYYIIVSLPDIEEALKEVTRETVWFIQRRKTIPFTDAYMLASLSVDVGISQLVNPAKTAKARIPKYIFTGV”, the “soluble on expression in E. coli” value is “soluble”.

For the sequence “MSRLTELLRQVRKADAQLGTDLEAEVAALTKRRTFGLVFEQHQPEAVELPGRVVRRGDKVRVLPPRGGTKAGDQRLWRTTRIECVDGQRVAHLAELDVEEPETRAVLADDVVVVAEFRDRIYPGLVETGRVERGGDKPFHTVVNAENYHALEMLTYTHRHSIDAIYIDPPYNTGARDWKYDNDYVASDDDYRHSKWLAFMERRLKICRELMRSDATLVATIDEHEVNRLGVLLDQLFPESTRQLVTIVNNPKGVTQGYLSRVEEYAFFVFGPDARIGSVDDDLLTHRDMADAEGELQRPRWKGLLRSGDDSLRADRKDMFYPVWFDESTGRLSHAGEALPLDETPDFSPQDGLTPIWPIRRDMKEGPTRAAPRRSILDYALHPHL”, the “soluble on expression in E. coli” value is on record as “not soluble”.

For the sequence “LSNLPRVKHTLVPPPFAHAHEQVAASGPVINEFEMRIIEKEVQLDEDAYLQAMTFDGSIPGPLMIVHEGDYVELTLINPPENTMPHNIDFHAATGALGGGGLTLINPGEKVVLRFKATRAGAFVYHCAPGGPMIPWHVVSGMAGCIMVLPRDGLKDHEGKPVRYDTVYYIGESDHYIPKDEDGTYMRFSDPSEGYEDMVAVMDTLIPSHIVFNGAVGALTGEGALKAKVGDNVLFVHSQPNRDSRPALIGGHGDLVWETGKFHNAPERDLETWFIRGGTAGAALYKFLQPGVYAYVNHNLIEAVHKGATAHVLVEGEWDNDLMEQVVAPVGLTG”, the “soluble on expression in E. coli” value was “soluble”.

Turning to “MMSNQTVYQFIAENQNELLQLWTDTLKELSEQESYQLTDQVYENISKEYIDILLLSVKDENAAESQISELALRAVQIGLSMKFLATALAEFWKRLYTKMNDKRLPDQESTELIWQIDRFFSPINTEIFNQYSISWE”, the “soluble on expression in E. coli” value was “soluble”.

As to “MNRKGNMKRKTLKNIVEYDGIGLHKGEIIKMKLIPAKSGGIIFRMVNMPEGKNEILLDYRNIFDLTRGTNLKNEHGAMVFTIEHFLSALYVLGITDLVIELNGNELPICDGSAIKFLDLFQESGIVELDEYVEEIIVKEPIFLSKGDKHVIALPYPDGYKLTYAIRFEHTFLKSQLAEFEITEKNYRKEIASARTFGFDYEVEYLKQNNLALGGTLENAIVIKKDGVLNPDGLRFDDEFVRHKMLDIIGDLKILNRPIRAHIIAIKAGHLIDIEFAKILDNIKLEHHHHHH”, the “soluble on expression in E. coli” value is recorded as “soluble”.

Consider “SLSGGKYVDSEGHLYTVPIREQGNIYKPNNKAMADELSEKQVYDAHTKEIDLVNRDPKHLNDDVVKIDFEDVIAEPEGTHSFDGIWKASFTTFTVTKYWFYREG”, for which the “soluble on expression in E. coli” value is listed as “not soluble”.

Turning to “MGSDKIHHHHHHMIRIKTPSEIEKMKKAGKAVAVALREVRKVIVPGKTAWDVETLVLEIFKKLRVKPAFKGYGGYKYATCVSVNEEVVHGLPLKEKVFKEGDIVSVDVGAVYQGLYGDAAVTYIVGETDERGKELVRVTREVLEKAIKMIKPGIRLGDVSHCIQETVESVGFNVIRDYVGHGVGRELHEDPQIPNYGTPGTGVVLRKGMTLAIEPMVSEGDWRVVVKEDGWTAVTVDGSRCAHFEHTILITENGAEILTKEG”, the “soluble on expression in E. coli” value is “soluble”.

For the sequence “MGSDKIHHHHHHMDKFLYVAMSGAKQNMSALAVRANNLANANTDGFKSDLTQARSMQAFGEGLPSRVFAMTEIATSDFKAGALKTTGRDLDIAVKGDGWIAVQAPDGSEAYTRSGGLKFDNTGLLLNSRNNPVMGNSGPIVLPLPIDKLQISPDGIISIRPQGATAEVIEEVARIKLVNPDNSQMMRGEDGLFRLTSGDVAAKDPSVQVESGAIEASNVNPVEEMVALISIQRQYEMQVKMMKTAEETDQASSSLMRIG”, the “soluble on expression in E. coli” value is given as “not soluble”.

As to “MGSDKIHHHHHHMSESYYGLLDEEKVFKDPVHRYIHVRDELIWALIGTKEFQRLRRVRQLGTTFLTFHGAEHTRFNHSLGVYEITRRIIEVFQGRPYWNEEERLLTLCAALLHDIGHGPFSHSFEKVFDTDHEEWTRRMIVGDTEIHNVLLKMGDDFPQKVADVIEKTYPNKLVTSIISSQIDADRMDYLQRDAYYTGVSYGHFDMERILRVMRPMEDQVVIKQSGMHAVEDYIMSRYQMYWQVYFHPVTRSAEVILSKVFKRVKDLYEQGYKFKQEPKHFYSLFEGNMSLDDYLRLDESITMYYFQIWQEEEDRILSDLCVRFINRQLFKYIEFNPNLQMNDWPRLQQLFAQAEIDPEYYLVVDSSSDLPYDFYRPGEEEERLPIHLIMPNGKLRELSRESDVVEAISGKKRTDHKLYFPMDCLTDQSDHKEIKQEILSLLFK”, the “soluble on expression in E. coli” value is reported as “not soluble”.

With “SANLCKRVVDLEKYIVKEAPPTVYYIPDFISEAEEEFLLQQVYRAPKPKWTQLSGRRLQNWGGLPNPKGMLAEKLPDWLLEYTEKISALGAFAGKTANHVLVNEYKPGEGIMPHEDGPLYHPTVTTITVGSHTLLDFYRPVCQAEPDAPQTEESRYMLSLLVQRKSLLILQDDMYKCYLHGIRGVCEDVLSEHVVNISSTGAQVGDTLPRSTRVSLTIRHVPKIIRANLFLGKK”, the “soluble on expression in E. coli” value is on record as “soluble”.

For “MGSDKIHHHHHHMIITVINGSPRKNGATSKVLTYLYKDIERLIPDVKINYFDLSEVNPSYCIGCLNCYKMGKCINQNDKVEYIHDIITKSDGVIFGSPTYGSSVTGLFKVFTDRAHMMLERLLYRKPCIAVTTYENARGSKAISFIKSMVLDSGGYVCGSLSIKTGFNQNPITEKVESKIQKVSKKFIYCIEEKKNPPVLSQIYNFIAINAVLKPMAFKDIEQYKGIIDRWEEQGII”, the “soluble on expression in E. coli” value was “not soluble”.

With “AEAAPCETADGTYHIALPEAENPPVLIFLHGHGGEGAATLRNARLVAPLLARGWAVIAPDGQSRAPGRPRSWTFFPGWEGRDEPAFLAQVLGEASARFGLDADRAVLGGFSAGAFMVTYLACATPGAYRAYVPVSGGFWRPQPDRCAGPVHLFQTHGWADPVVPLEGRFLGGGRFQQGDIFAGLELWRQTNGCVEHKPDGFDQTGPFLRRRWQGCSGGSLEFALFPGGHTVPEGWADMMADWVEAL”, the “soluble on expression in E. coli” value is reported as “not soluble”.

“MNIMLTGATGHLGTHITNQAIANHIDHFHIGVRNVEKVPDDWRGKVSVRQLDYFNQESMVEAFKGMDTVVFIPSIIHPSFKRIPEVENLVYAAKQSGVAHIIFIGYYADQHNNPFHMSPYFGYASRLLSTSGIDYTYVRMAMYMDPLKPYLPELMNMHKLIYPAGDGRINYITRNDIARGVIAIIKNPDTWGKRYLLSGYSYDMKELAAILSEASGTEIKYEPVSLETFAEMYDEPKGFGALLASMYHAGARGLLDQESNDFKQLVNDQPQTLQSFLQENILEHHHHHH”: the “soluble on expression in E. coli” value is recorded as “soluble”.

As for “MSDHPGPGAVTPELFGVGGDWLAVTAGESGASVFRAADATRYAKCVPAADAAGLEAERDRIAWLSGQGVPGPRVLDWYAGDAGACLVTRAVPGVPADRVGADDLRTAWGAVADAVRRLHEVPVASCPFRRGLDSVVDAARDVVARGAVHPEFLPVEQRLVPPAELLARLTGELARRRDQEAADTVVCHGDLCLPNIVLHPETLEVSGFIDLGRLGAADRHADLALLLANARETWVDEERARFADAAFAERYGIAPDPERLRFYLHLDPLTWG”, the “soluble on expression in E. coli” value was “not soluble”.
